Biological target: CD38 protein on the surfaces of Raji cells, Daudi cells, Ramos cells and RPMI8226 cells (human, UniProt P28907 1-300)
Experiment: cell-based or functional assay

- ADCC activity, EC50 (Daudi target cells, NK92MI-CD16a effector cells, LDH release): 0.72 ng/mL
- ADCC activity, EC50 (RPMI8226 target cells, NK92MI-CD16a effector cells, LDH release): 1.46 ng/mL
- ADCC activity, EC50 (Raji target cells, NK92MI-CD16a effector cells, LDH release): 6.97 ng/mL
B1: antibody SG003 (antibody, human IgG1, kappa, V domains shown)
VH: QVQLLESGGGLVQPGGSLKLSCVASGFDFSLYWMNWVRQAPGKGLEWIGKINPDSSTINYTPSLKDKFFISRDNAKNTLYLQMTKVRSEDTALYYCARLWIATGGFDYWGQGTTLTVSS
VL: EIVMTQSPASLSASLGQRATISCRASSSVSSSAFSYVHWYQQKSGQPPKLLIYLASNLESGVPARFSGSGSGTDFTLTIHPVESEDVATYYCHHSRELPFTFGSGTKLEIKR

From patent US20210024645A1 (HANGZHOU SUMGEN BIOTECH, published 2021)
